# Test results from US20230257458A1 (SUNSHINE LAKE PHARMA, published 2023).
# T1: IL-11 protein (UniProt P20809 22-199, limits assumed)
# T1 construct: also called IL-11 antigen
# T1 sequence (looked up): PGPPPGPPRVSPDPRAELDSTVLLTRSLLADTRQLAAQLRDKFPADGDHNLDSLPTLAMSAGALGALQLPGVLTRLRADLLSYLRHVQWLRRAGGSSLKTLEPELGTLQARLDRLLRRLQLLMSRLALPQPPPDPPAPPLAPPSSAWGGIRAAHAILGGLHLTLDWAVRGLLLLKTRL
# B1: 3-5B2-2G4 (antibody, human IgG1, kappa, V domains shown)
# VH: QIQLVQSGPELKKPGETVKISCKASGYTFTNYGMNWVKQAPGKGLKWMGWINTNTGEPTYAEEIKGRFAFSLETSASTAYLQINNLKNEDTATYFCSREGIYGMDSWGQGTSVTVSS
# VL: SIVMTQTPKFLLVSAGDRVTITCKASQSVSNDVVWYRQKPGQSPKLLIYYASNRYIGVPDRFTGSGYGTDFTFTISTVQAEDLAVYFCQQDYYSPWTFGGGTKLEIKR
# B2: 3-9E1-3A2 (antibody, human IgG1, kappa, V domains shown)
# VH: QIQLVQSGPELKKPGETVNISCRASGDTFTNYAVNWVKQAPGKGLKWMGWIDTYTGDPTYADDLKGRFAFSLETSATTAYLQINNLKNEDTATYFCAGDTWFAYWGQGTLVTVSA
# VL: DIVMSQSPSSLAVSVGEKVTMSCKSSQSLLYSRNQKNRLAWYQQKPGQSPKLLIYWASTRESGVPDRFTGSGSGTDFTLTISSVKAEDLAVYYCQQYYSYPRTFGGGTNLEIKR
# B3: 3-15D5-3A6 (antibody, human IgG1, kappa, V domains shown)
# VH: QVTLKESGPGILQPSQTLSLTCSFSGFSLSSSGMSVGWIRQPSGKGLEWLAHIWWSDDKSYNPALKSRLTISKDTSNNQVFLKIASVVTADTATYYCAREGSLGYGLDYWGQGTTLTVSS
# VL: DVLMTQTPLSLPVSLGDQASISCRSSQSIVHTDGNTYLEWYLQKPGQSPKLLIYKVSNRFSGVPDRFSGSGSGTDFTLKISRVEAEDLGVYYCFQGSHVPWTFGGGTKLEIKR
# B4: VH2 + VL3-scFv (scFv, V domains shown)
# VH: QVQLVQSGAEVKKPGASVKVSCKASDYTFTNYWLGWVRQAPGQGLEWIGHIYPGGGYTNYNEKFKGRVTMTADTSTSTVYMELSSLRSEDTAVYFCARVRSGNDALDFWGQGTLVTVSS
# VL: EIVLTQSPATLSLSPGERATLSCRASESVDEYGISFMNWFQQKPGQAPRLLIYSASNQGSGIPARFSGSGSGTDFTLTISSLEPEDFAVYFCQQSKEVPWTFGGGTKLEIK
# notes: Humanized 5-20E11-5F2; CHO supernatant; Called scFv, but heavy and light vectors were co-transfected
# B5: VH2 + VL2-scFv (scFv, V domains shown)
# VH: QVQLVQSGAEVKKPGASVKVSCKASDYTFTNYWLGWVRQAPGQGLEWIGHIYPGGGYTNYNEKFKGRVTMTADTSTSTVYMELSSLRSEDTAVYFCARVRSGNDALDFWGQGTLVTVSS
# VL: EIVLTQSPATLSLSPGERATLSCRASESVDEYGISFMNWYQQKPGQAPRLLIYSASNQGSGIPARFSGSGSGTDFTLTISSLEPEDFAVYFCQQSKEVPWTFGGGTKLEIK
# notes: as for B4
# B6: VH3 + VL4-scFv (scFv, V domains shown)
# VH: QVQLVQSGAEVKKPGASVKVSCKASDYTFTNYWLGWVRQAPGQGLEWIGHIYPGGGYTNYNEKFKGRATLTADTSTSTVYMELSSLRSEDTAVYFCARVRSGNDALDFWGQGTLVTVSS
# VL: EIVLTQSPATLSLSPGERATLSCRASESVDEYGISFMNWFQQKPGQAPRLLIYSASNQGSGIPARFSGSGSGTDFTLTISSLEPEDFAMYFCQQSKEVPWTFGGGTKLEIK
# notes: as for B4
# B7: VH4 + VL4-scFv (scFv, V domains shown)
# VH: QVQLVQSGAEVKKPGASVKVSCKASDYTFTNYWLGWVRQAPGHGLEWIGHIYPGGGYTNYNEKFKGRATLTADTSTSTVYMELSSLRSEDTAVYFCARVRSGNDALDFWGQGTLVTVSS
# VL: EIVLTQSPATLSLSPGERATLSCRASESVDEYGISFMNWFQQKPGQAPRLLIYSASNQGSGIPARFSGSGSGTDFTLTISSLEPEDFAMYFCQQSKEVPWTFGGGTKLEIK
# notes: as for B4
# B8: VH3 + VL1-scFv (scFv, V domains shown)
# VH: QVQLVQSGAEVKKPGASVKVSCKASDYTFTNYWLGWVRQAPGQGLEWIGHIYPGGGYTNYNEKFKGRATLTADTSTSTVYMELSSLRSEDTAVYFCARVRSGNDALDFWGQGTLVTVSS
# VL: EIVLTQSPATLSLSPGERATLSCRASESVDEYGISFMNWYQQKPGQAPRLLIYSASNQGSGIPARFSGSGSGTDFTLTISSLEPEDFAVYYCQQSKEVPWTFGGGTKLEIK
# notes: as for B4
# B9: VH2 + VL4-scFv (scFv, V domains shown)
# VH: QVQLVQSGAEVKKPGASVKVSCKASDYTFTNYWLGWVRQAPGQGLEWIGHIYPGGGYTNYNEKFKGRVTMTADTSTSTVYMELSSLRSEDTAVYFCARVRSGNDALDFWGQGTLVTVSS
# VL: EIVLTQSPATLSLSPGERATLSCRASESVDEYGISFMNWFQQKPGQAPRLLIYSASNQGSGIPARFSGSGSGTDFTLTISSLEPEDFAMYFCQQSKEVPWTFGGGTKLEIK
# notes: as for B4
# Molecular target: T1, IL-11 protein
# Test: flow competition: IL-11 + antibody on IL-11R cells; lower = more blocking
# Description: (§1) Cell lines with high secretion of specific antibody were selected for expanded culture and cryopreservation.
row,Binder,FITC Mean
1,B1,19800
2,B2,9070
3,B3,10900

# Molecular target: T1, IL-11 protein
# Test: ELISA, monoclonal hybridoma supernatant on IL-11
# Description: as §1
row,Binder,OD450
1,B1,1.65
2,B2,1.54
3,B3,1.69

# Molecular target: T1, IL-11 protein
# Test: SPR (Biacore), antibody captured, 400 nM IL-11 as analyte
# Procedure: The measure method included the steps of capturing the humanized antibody at a flow rate of 10 ul/min. […] Finally the chip was regenerated with 10 mM glycine buffer.
Binder,Kd [nM],koff [s⁻¹],kon [M⁻¹ s⁻¹]
B4,11.9,0.000541,45600
B5,17.8,0.000812,45700
B6,13.3,0.000556,41800
B7,10,0.000481,47900
B8,22.5,0.001,44500
B9,10.8,0.000528,48800
